Laboratory results published in patent US20100292309A1.

Biological target: H-2Kb-restricted ova peptide SIINFEKL presented on H-2Kb (chicken)
Assay: cell-based or functional assay

IFN-gamma ELISPOT, spots per well (spots per well): > 1000
Substance: transgenic OT-I T-cell receptor (TCR)
